The target in this assay is PaNOMT9 (Phellodendron amurense). The assay is described as follows: crystal structure.

For the substance PaNOMT9 (enzyme), the stoichiometry N worked out at 2.

As usually defined, the stoichiometry N is the number of molecules, sites or subunits per partner or assembly.
